The record followed here is article PMC9482650, “Quantitative fragmentomics allow affinity mapping of interactomes” (Nature Communications, 2022).

Among the targets are CNKSR3, Q6P9H4; PARD3B_3, Q8TEW8; MAGI3_4, Q5TCQ9; DLG5_2, Q8TDM6; PREX1_1, Q8TCU6; Inadl_7, Q8NI35; DVL2, O14641; CARD14, Q9BXL6; GRIP2_2, Q9C0E4; SCRIB_4, Q14160; TJP1_1, Q07157; DLG1_3, Q12959.
Test in all cases: holdup assay
What all share (set-up): key: below the threshold = too weak to quantify, mostly under pKd 3.1 to 4
Holding throughout (conditions): plain residues with an end cap or a label only (N-terminal biotin on a linker: ttds)

For the next assay, the target named is T1, SHROOM2, Q13796.
T1 sequence (Q13796 21-118, limits assumed, looked up): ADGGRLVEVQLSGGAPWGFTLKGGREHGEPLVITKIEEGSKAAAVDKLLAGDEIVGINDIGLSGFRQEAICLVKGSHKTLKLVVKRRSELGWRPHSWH

The next assay deals with T2, LIN7C, Q9NUP9.
T2 sequence (Q9NUP9 88-185, limits assumed, looked up): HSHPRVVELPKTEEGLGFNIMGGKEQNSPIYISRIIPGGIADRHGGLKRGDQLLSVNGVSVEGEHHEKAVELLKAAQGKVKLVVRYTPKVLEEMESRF

The next assay concerns the target T3, APBA1_2, Q02410.
T3 sequence (Q02410 742-832, limits assumed, looked up): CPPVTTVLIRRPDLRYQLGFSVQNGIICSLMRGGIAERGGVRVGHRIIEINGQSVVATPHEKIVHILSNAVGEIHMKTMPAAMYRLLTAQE

Another assay concerns the target T4, MPDZ_11, O75970.
T4 sequence (O75970 1720-1817, limits assumed, looked up): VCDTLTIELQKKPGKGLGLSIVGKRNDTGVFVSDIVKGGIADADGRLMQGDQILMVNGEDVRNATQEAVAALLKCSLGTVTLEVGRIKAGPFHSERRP

In a further assay the target is T5, PTPN13_4, Q12923.
T5 sequence (Q12923 1783-1878, limits assumed, looked up): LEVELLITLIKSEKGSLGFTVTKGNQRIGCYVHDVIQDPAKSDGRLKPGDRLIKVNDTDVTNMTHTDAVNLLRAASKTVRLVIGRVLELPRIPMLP

For another assay, the target named is T6, SYNPO2L, Q9H987.
T6 sequence (Q9H987 1-98, limits assumed, looked up): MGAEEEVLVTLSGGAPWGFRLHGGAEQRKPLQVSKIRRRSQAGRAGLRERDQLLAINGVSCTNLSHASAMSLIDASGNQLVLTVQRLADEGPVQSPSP

The target in another assay is T7, PDZD4, Q76G19.
T7 sequence (Q76G19 125-224, limits assumed, looked up): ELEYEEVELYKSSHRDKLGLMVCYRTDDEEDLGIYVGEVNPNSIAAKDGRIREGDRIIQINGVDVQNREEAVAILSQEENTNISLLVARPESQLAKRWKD

The target in a further assay is T8, NHERF1_2, O14745.
T8 sequence (O14745 149-244, limits assumed, looked up): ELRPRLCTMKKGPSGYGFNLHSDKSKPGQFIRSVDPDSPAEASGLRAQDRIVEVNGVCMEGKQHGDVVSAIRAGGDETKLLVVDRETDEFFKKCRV

For the next assay, the target named is T9, PDZRN3_2, Q9UPQ7.
T9 sequence (Q9UPQ7 414-513, limits assumed, looked up): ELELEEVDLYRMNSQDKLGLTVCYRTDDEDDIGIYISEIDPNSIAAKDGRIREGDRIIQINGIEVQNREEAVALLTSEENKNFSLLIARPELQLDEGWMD

The next assay concerns the target T10, USH1C_2, Q9Y6N9.
T10 sequence (Q9Y6N9 206-303, limits assumed, looked up): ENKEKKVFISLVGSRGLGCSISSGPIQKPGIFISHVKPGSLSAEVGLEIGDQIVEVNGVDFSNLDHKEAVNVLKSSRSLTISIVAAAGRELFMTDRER

A further assay deals with T11, MPDZ_2, O75970.
T11 sequence (O75970 252-347, limits assumed, looked up): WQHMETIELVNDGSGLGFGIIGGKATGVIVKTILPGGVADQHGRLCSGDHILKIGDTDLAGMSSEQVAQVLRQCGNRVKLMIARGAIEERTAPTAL

The target in a further assay is T12, PDZD2_5, O15018.
T12 sequence (O15018 2617-2716, limits assumed, looked up): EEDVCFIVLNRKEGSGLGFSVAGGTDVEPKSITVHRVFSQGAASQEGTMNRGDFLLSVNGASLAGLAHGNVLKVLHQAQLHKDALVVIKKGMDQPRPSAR

DLG1_3, Q12959, sequence (Q12959 457-571): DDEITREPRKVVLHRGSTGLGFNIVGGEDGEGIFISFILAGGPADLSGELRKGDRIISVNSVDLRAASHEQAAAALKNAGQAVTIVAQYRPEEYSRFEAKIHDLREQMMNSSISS
GRIP2_2, Q9C0E4, sequence (Q9C0E4 137-245): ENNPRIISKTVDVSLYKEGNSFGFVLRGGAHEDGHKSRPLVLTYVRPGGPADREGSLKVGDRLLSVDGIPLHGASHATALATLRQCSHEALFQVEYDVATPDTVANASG
DVL2, O14641, sequence (O14641 260-359): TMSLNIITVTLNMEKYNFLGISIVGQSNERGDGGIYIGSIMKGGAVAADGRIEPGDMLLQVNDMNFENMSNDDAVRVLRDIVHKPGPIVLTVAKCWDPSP
SCRIB_4, Q14160, sequence (Q14160 1095-1204): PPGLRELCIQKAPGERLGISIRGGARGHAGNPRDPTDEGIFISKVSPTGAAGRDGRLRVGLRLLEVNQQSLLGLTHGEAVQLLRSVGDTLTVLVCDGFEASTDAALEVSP
DLG5_2, Q8TDM6, sequence (Q8TDM6 714-800): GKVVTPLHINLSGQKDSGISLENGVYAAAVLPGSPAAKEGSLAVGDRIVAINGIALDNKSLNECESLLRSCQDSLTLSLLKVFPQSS
Inadl_7, Q8NI35, sequence (Q8NI35 1219-1332): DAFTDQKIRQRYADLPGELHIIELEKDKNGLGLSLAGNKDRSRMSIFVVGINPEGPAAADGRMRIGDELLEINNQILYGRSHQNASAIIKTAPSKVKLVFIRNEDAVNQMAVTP
MAGI3_4, Q5TCQ9, sequence (Q5TCQ9 716-815): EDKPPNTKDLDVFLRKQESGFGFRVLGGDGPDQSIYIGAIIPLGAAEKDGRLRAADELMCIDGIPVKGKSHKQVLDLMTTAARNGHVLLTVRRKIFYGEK
TJP1_1, Q07157, sequence (Q07157 18-120): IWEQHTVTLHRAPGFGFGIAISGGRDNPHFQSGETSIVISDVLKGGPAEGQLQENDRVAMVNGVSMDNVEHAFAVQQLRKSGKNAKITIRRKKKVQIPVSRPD
PARD3B_3, Q8TEW8, sequence (Q8TEW8 490-594): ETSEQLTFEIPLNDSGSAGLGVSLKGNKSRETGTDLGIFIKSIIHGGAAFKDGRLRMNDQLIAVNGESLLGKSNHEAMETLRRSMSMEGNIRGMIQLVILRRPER
CARD14, Q9BXL6, sequence (Q9BXL6 558-663): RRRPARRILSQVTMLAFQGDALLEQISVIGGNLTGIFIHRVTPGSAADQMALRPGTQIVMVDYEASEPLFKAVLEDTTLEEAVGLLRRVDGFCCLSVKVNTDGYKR
PREX1_1, Q8TCU6, sequence (Q8TCU6 608-718): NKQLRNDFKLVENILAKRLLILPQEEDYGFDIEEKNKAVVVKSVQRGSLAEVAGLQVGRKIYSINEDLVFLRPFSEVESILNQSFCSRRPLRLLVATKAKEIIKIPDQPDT
CNKSR3, Q6P9H4, sequence (Q6P9H4 203-303): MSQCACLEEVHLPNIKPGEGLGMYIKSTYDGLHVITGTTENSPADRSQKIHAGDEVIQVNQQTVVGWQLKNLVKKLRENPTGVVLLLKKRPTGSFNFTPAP

One may read the pKd as the Kd on a negative log10 scale, so that one unit is a factor of ten. SHSSKGETAV [FZD7, O75084]: the negative-log Kd (pKd) entry is “below the threshold” with CNKSR3, Q6P9H4; “below the threshold” with PARD3B_3, Q8TEW8; “below the threshold” in the assay with SHROOM2, Q13796; 4.03 with LIN7C, Q9NUP9; 3.8 with APBA1_2, Q02410; “below the threshold” with MAGI3_4, Q5TCQ9. The negative logarithm of the Kd (pKd) result in the assay with DLG5_2, Q8TDM6 is “below the threshold”; in the assay with PREX1_1, Q8TCU6 it was “below the threshold”; with MPDZ_11, O75970, “below the threshold”; with Inadl_7, Q8NI35, 4.99; with DVL2, O14641, “below the threshold”; in the assay with CARD14, Q9BXL6 it was “below the threshold”. The pKd entry was “below the threshold” with PTPN13_4, Q12923; “below the threshold” with SYNPO2L, Q9H987; “below the threshold” with PDZD4, Q76G19; 4.49 with GRIP2_2, Q9C0E4; “below the threshold” in the assay with SCRIB_4, Q14160; “below the threshold” with NHERF1_2, O14745. The negative logarithm of the Kd (pKd) entry was “below the threshold” in the assay with PDZRN3_2, Q9UPQ7; “below the threshold” with USH1C_2, Q9Y6N9; “below the threshold” with TJP1_1, Q07157; “below the threshold” with MPDZ_2, O75970; 4.01 with DLG1_3, Q12959; “below the threshold” in the assay with PDZD2_5, O15018.
Turning to KLVIKTETTV [RASSF6, Q6ZTQ3], the negative-log Kd (pKd) result with CNKSR3, Q6P9H4 was “below the threshold”; with PARD3B_3, Q8TEW8 it was “below the threshold”; in the assay with SHROOM2, Q13796, “below the threshold”; in the assay with LIN7C, Q9NUP9, 4.23; with APBA1_2, Q02410, “below the threshold”; in the assay with MAGI3_4, Q5TCQ9 it was “below the threshold”. Besides, the pKd with DLG5_2, Q8TDM6 was 4.33; with PREX1_1, Q8TCU6, 4.1; in the assay with MPDZ_11, O75970, “below the threshold”; in the assay with Inadl_7, Q8NI35, 4.51; with DVL2, O14641, “below the threshold”; in the assay with CARD14, Q9BXL6, “below the threshold”. Further, the negative-log Kd (pKd) entry is “below the threshold” with PTPN13_4, Q12923; “below the threshold” with SYNPO2L, Q9H987; “below the threshold” with PDZD4, Q76G19; “below the threshold” with GRIP2_2, Q9C0E4; “below the threshold” with SCRIB_4, Q14160; “below the threshold” with NHERF1_2, O14745. The pKd entry was “below the threshold” in the assay with PDZRN3_2, Q9UPQ7; “below the threshold” with USH1C_2, Q9Y6N9; “below the threshold” with TJP1_1, Q07157; “below the threshold” with MPDZ_2, O75970; 4.2 with DLG1_3, Q12959; “below the threshold” with PDZD2_5, O15018.
In the case of PSRDRKETSI [RALBP1, Q15311], the pKd result with CNKSR3, Q6P9H4 is “below the threshold”; in the assay with PARD3B_3, Q8TEW8, “below the threshold”; with SHROOM2, Q13796, “below the threshold”; with LIN7C, Q9NUP9, 3.9; with APBA1_2, Q02410, 3.32; in the assay with MAGI3_4, Q5TCQ9, “below the threshold”. For the same molecule, the negative-log Kd (pKd) in the assay with DLG5_2, Q8TDM6 was 4.26; in the assay with PREX1_1, Q8TCU6, “below the threshold”; with MPDZ_11, O75970 it was “below the threshold”; with Inadl_7, Q8NI35, 4.36; in the assay with DVL2, O14641 it was “below the threshold”; with CARD14, Q9BXL6, “below the threshold”. Also, the negative logarithm of the Kd (pKd) entry with PTPN13_4, Q12923 was “below the threshold”; in the assay with SYNPO2L, Q9H987, “below the threshold”; with PDZD4, Q76G19, “below the threshold”; with GRIP2_2, Q9C0E4 it was 4.25; with SCRIB_4, Q14160, “below the threshold”; with NHERF1_2, O14745 it was “below the threshold”. Further, the pKd entry in the assay with PDZRN3_2, Q9UPQ7 was “below the threshold”; with USH1C_2, Q9Y6N9, “below the threshold”; with TJP1_1, Q07157 it was “below the threshold”; with MPDZ_2, O75970 it was “below the threshold”; with DLG1_3, Q12959, 4.28; with PDZD2_5, O15018, “below the threshold”.
